Experimental data published in patent publication US20230265151A1, “GIP/GLP1 CO-AGONIST COMPOUNDS” (priority 2020, published 2023).
Residue numbers refer to the chain shown, from its start.

Assays:
Experiment in all cases: cell-based or functional assay
human glucagon receptor = human glucagon receptor (human, UniProt P47871 26-477)
human GLP-1 receptor = human GLP-1 receptor (human, UniProt P43220 24-463)
human GIP receptor = target: T1, human GIP receptor (human, UniProt P48546 22-466)
T1 sequence (looked up): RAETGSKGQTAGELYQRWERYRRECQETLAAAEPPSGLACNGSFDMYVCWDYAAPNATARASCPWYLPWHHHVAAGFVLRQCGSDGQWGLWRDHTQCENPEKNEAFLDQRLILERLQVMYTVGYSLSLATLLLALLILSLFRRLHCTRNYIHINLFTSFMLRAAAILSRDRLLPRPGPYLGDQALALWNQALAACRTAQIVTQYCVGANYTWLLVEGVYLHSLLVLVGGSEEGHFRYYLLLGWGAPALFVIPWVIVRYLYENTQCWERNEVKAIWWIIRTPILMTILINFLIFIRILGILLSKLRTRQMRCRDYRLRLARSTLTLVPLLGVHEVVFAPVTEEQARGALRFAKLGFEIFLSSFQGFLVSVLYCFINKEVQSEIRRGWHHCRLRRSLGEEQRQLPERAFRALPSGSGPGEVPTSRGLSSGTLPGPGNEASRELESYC

B1: Y-Aib-EGT-αMeF(2F)-TSD-4Pal-SI-αMeL-LD-Orn-K((2-[2-(2-Amino-ethoxy)-ethoxy]-acetyl)2-(γ-Glu)-CO-(CH2)12-CO2H)AQ-Aib-EFI-(D-Glu)-αMeY-LIEGK((2-[2-(2-Amino-ethoxy … (peptide)
peptide: YXEGTXTSDXSIXLDXKAQXEFIXXLIEGKPSSGAPPPS
modifications: Aib2, αMeF(2F)6, 4Pal10, αMeL13, Orn16, Aib20, D-Glu24, αMeY25; acylated K17, K30 (groups as in name); C-terminal amide
Human glucagon receptor
  cAMP EC50 (1.0% HSA): > 9950 nM
Human GLP-1 receptor
  cAMP Emax (1.0% HSA): 103%
Human GIP receptor
  cAMP EC50 (1.0% HSA): 1.12 nM

B2: Y-Aib-EGT-αMeF(2F)-TSD-4Pal-SI-αMeL-LD-Orn-K((2-[2-(2-Amino-ethoxy)-ethoxy]-acetyl)2-(γ-Glu)-CO-(CH2)14-CH3)AQ-Aib-EFI-(D-Glu)-αMeY-LIEGK((2-[2-(2-Amino-ethoxy) … (peptide)
peptide: B1 peptide
modifications: Aib2, αMeF(2F)6, 4Pal10, αMeL13, Orn16, Aib20, D-Glu24, αMeY25; acylated K17, K30 (groups as in name); C-terminal amide
Human glucagon receptor
  cAMP EC50 (1.0% HSA): > 9950 nM
Human GLP-1 receptor
  cAMP Emax (1.0% HSA): 103%
Human GIP receptor
  cAMP EC50 (1.0% HSA): 0.444 nM

B3: Y-Aib-EGT-αMeF(2F)-TSD-4Pal-SK((2-[2-(2-Amino-ethoxy)-ethoxy]-acetyl)2-(γ-Glu)-CO-(CH2)12-CO2H)-αMeL-LD-Orn-K((2-[2-(2-Amino-ethoxy)-ethoxy]-acetyl)2-(γ-Glu)-CO … (peptide)
peptide: B1 peptide with I12K, K30G
modifications: Aib2, αMeF(2F)6, 4Pal10, αMeL13, Orn16, Aib20, D-Glu24, αMeY25; acylated K12, K17 (groups as in name); C-terminal amide
Human glucagon receptor
  cAMP EC50 (1.0% HSA): > 9950 nM
Human GLP-1 receptor
  cAMP EC50 (1.0% HSA): 60.4 nM
Human GIP receptor
  cAMP EC50 (1.0% HSA): 2.08 nM
  cAMP Emax (1.0% HSA): 93%

B4: Y-Aib-EGT-αMeF-TSD-αMeF-SI-αMeL-LD-Orn-K((2-[2-(2-Amino-ethoxy)-ethoxy]-acetyl)2-(γ-Glu)-CO-(CH2)12-CO2H)AQ-Aib-EFI-(D-Glu)-αMeY-LIEGGK((2-[2-(2-Amino-ethoxy)-e … (peptide)
peptide: B1 peptide with K30G, P31K
modifications: Aib2, αMeF6, αMeF10, αMeL13, Orn16, Aib20, D-Glu24, αMeY25; acylated K17, K31 (groups as in name); C-terminal amide
Human glucagon receptor
  cAMP EC50 (1.0% HSA): > 9950 nM
Human GLP-1 receptor
  cAMP EC50 (1.0% HSA): 387 nM
Human GIP receptor
  cAMP EC50 (1.0% HSA): 13.7 nM
  cAMP Emax (1.0% HSA): 72.5%

B5: Y-Aib-EGT-αMeF-TSD-4Pal-SI-αMeF-LD-Orn-K((2-[2-(2-Amino-ethoxy)-ethoxy]-acetyl)2-(γ-Glu)-CO-(CH2)12-CO2H)AQ-Aib-EFI-(D-Glu)-αMeY-LIEGGK((2-[2-(2-Amino-ethoxy)-e … (peptide)
peptide: B1 peptide with K30G, P31K
modifications: Aib2, αMeF6, 4Pal10, αMeF13, Orn16, Aib20, D-Glu24, αMeY25; acylated K17, K31 (groups as in name); C-terminal amide
Human glucagon receptor
  cAMP EC50 (1.0% HSA): > 9950 nM
Human GLP-1 receptor
  cAMP EC50 (1.0% HSA): 261 nM
Human GIP receptor
  cAMP EC50 (1.0% HSA): 12.8 nM
  cAMP Emax (1.0% HSA): 73.3%

B6: Y-Aib-EGT-αMeF-TSD-4Pal-SI-αMeL-LD-Orn-K((2-[2-(2-Amino-ethoxy)-ethoxy]-acetyl)2-(γ-Glu)-CO-(CH2)12-CO2H)AQ-Aib-EFI-(D-Glu)-αMeF-LIEGGK((2-[2-(2-Amino-ethoxy)-e … (peptide)
peptide: B1 peptide with K30G, P31K
modifications: Aib2, αMeF6, 4Pal10, αMeL13, Orn16, Aib20, D-Glu24, αMeF25; acylated K17, K31 (groups as in name); C-terminal amide
Human glucagon receptor
  cAMP EC50 (1.0% HSA): > 9950 nM
Human GLP-1 receptor
  cAMP EC50 (1.0% HSA): 118 nM
Human GIP receptor
  cAMP EC50 (1.0% HSA): 2.12 nM

B7: Y-Aib-EGT-αMeF(2F)-TSDY-aMeS-I-αMeL-LD-Orn-K((2-[2-(2-Amino-ethoxy)-ethoxy]-acetyl)2-(γ-Glu)-CO-(CH2)12-CO2H)AQ-Aib-EFI-(D-Glu)-αMeY-LIEGGK((2-[2-(2-Amino-ethox … (peptide)
peptide: B1 peptide with X10Y, S11X, K30G, P31K
modifications: Aib2, αMeF(2F)6, αMeS11, αMeL13, Orn16, Aib20, D-Glu24, αMeY25; acylated K17, K31 (groups as in name); C-terminal amide
Human glucagon receptor
  cAMP EC50 (1.0% HSA): > 9950 nM
Human GLP-1 receptor
  cAMP EC50 (1.0% HSA): 20.1 nM
Human GIP receptor
  cAMP EC50 (1.0% HSA): 1.51 nM
  cAMP Emax (1.0% HSA): 92.4%

B8: Y-Aib-EGT-αMeF(2F)-TSDY-Aib-I-αMeL-LD-Orn-K((2-[2-(2-Amino-ethoxy)-ethoxy]-acetyl)2-(γ-Glu)-CO-(CH2)12-CO2H)AQ-Aib-EFI-(D-Glu)-αMeY-LIEGGK((2-[2-(2-Amino-ethoxy … (peptide)
peptide: B1 peptide with X10Y, S11X, K30G, P31K
modifications: Aib2, αMeF(2F)6, Aib11, αMeL13, Orn16, Aib20, D-Glu24, αMeY25; acylated K17, K31 (groups as in name); C-terminal amide
Human glucagon receptor
  cAMP EC50 (1.0% HSA): > 9950 nM
Human GLP-1 receptor
  cAMP EC50 (1.0% HSA): 27.8 nM
Human GIP receptor
  cAMP EC50 (1.0% HSA): 1.81 nM
  cAMP Emax (1.0% HSA): 91.4%

B9: Y-Aib-EGT-αMeF(2F)-TSD-αMeL-SI-aMeL-LD-Orn-K((2-[2-(2-Amino-ethoxy)-ethoxy]-acetyl)2-(γ-Glu)-CO-(CH2)12-CO2H)AQ-Aib-EFI-(D-Glu)-αMeY-LIEGGK((2-[2-(2-Amino-ethox … (peptide)
peptide: B1 peptide with K30G, P31K
modifications: Aib2, αMeF(2F)6, αMeL10, αMeL13, Orn16, Aib20, D-Glu24, αMeY25; acylated K17, K31 (groups as in name); C-terminal amide
Human glucagon receptor
  cAMP EC50 (1.0% HSA): > 9950 nM
Human GLP-1 receptor
  cAMP EC50 (1.0% HSA): 100 nM
Human GIP receptor
  cAMP EC50 (1.0% HSA): 15.8 nM
